The target of the assay is full length human importin β (KPNB1), expressed from pET30a-WT Importin β (pKW485) (human, UniProt Q14974 1-876). As to the kind of experiment: FRET; displacement of importin β-bound Rango sensor.

For 2 molecules, Kd results are on record in publication doi:10.1101/787473 (2019).

full length human importin β (KPNB1), expressed from pET30a-WT Importin β (pKW485), sequence (Q14974 whole entry): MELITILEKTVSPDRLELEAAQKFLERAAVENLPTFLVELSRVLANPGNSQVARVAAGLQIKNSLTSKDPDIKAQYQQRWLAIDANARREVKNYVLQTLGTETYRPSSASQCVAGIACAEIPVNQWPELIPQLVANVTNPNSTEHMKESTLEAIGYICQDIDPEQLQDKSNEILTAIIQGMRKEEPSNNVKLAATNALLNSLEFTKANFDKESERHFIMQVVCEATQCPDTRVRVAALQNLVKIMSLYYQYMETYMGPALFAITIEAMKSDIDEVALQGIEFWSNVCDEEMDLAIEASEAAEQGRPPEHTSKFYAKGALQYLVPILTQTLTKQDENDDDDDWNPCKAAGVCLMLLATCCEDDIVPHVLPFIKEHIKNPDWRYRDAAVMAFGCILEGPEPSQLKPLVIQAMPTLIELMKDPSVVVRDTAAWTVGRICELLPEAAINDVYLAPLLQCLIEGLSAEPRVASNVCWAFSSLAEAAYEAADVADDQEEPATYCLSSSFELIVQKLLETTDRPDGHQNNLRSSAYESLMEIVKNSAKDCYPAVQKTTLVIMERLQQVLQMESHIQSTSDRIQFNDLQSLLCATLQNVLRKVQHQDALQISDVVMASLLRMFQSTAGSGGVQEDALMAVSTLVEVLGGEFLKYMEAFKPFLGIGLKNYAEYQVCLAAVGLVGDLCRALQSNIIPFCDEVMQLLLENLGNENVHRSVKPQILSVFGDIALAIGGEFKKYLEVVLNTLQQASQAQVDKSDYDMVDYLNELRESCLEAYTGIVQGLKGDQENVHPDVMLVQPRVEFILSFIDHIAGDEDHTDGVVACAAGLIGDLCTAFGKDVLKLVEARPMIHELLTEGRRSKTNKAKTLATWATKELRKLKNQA

GRGRGRGRGRGRGRGRGRGRKC: the affinity, expressed as Kd, was 0.0174 µM. Under PRPRPRPRPRPRPRPRPRPRKC stands 0.0082 µM.
